The supplement of paper PMC7877785
± gives the uncertainty stated by the source.

Assay: self-splicing fitness, log relative to wild type (ln ratio); higher = more splicing; Tetrahymena group I intron in knt gene, E. coli kanamycin selection, DiMSum; sequences stand for … in CUCUCU…GGAGGGAAAAGUUAUCAGGCAUGCACCUGGUAGCUAGUCUUUAAACCAAUAGAUUGCAUCGGUUUAAAAGGCAAGACCGUCAAAUUGCGGGAAAGGGGUCAACAGCCGUUCAGUACCAAGUCUCAGGGGAAACUUUGAGAUGGCCUUGCAAAGGGUAUGGUAAUAAGCUGACGGACAUGGUCCUAACCACGCAGCCAAGUCCUAAGUCAACAGAUCUUCUGUUGAUAUGGAUGCAGUUCACAGACUAAAUGUCGGUCGGGGAAGAUGUAUUCUUCUCAUAAGAUAUAGUCGGACCUCUCCUUAAUGGGAGCUAGCGGAUGAAGUGAUGCAACACUGGAGCCGCUGGGAACUAAUUUGUAUGCGAAAGUAUAUUGAUUAGUUUUGGAGUACUCGUGGUCG
Outline: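 Colonies from six replicate transformations of E. coli BL21(DE3) were pooled and amplicon-sequenced on an Illumina HiSeq 2500. The library placed an intron with all eight P1ex-region nucleotides randomised inside the knt kanamycin-resistance gene on pET-22b(+), and cells grew overnight at 37°C or 30°C on LB agar with or without 25 μg/mL kanamycin (plus 100 μg/mL carbenicillin, 50 μM IPTG, 0.2% rhamnose). Fitness is the DiMSum error-weighted combination of wild-type-normalised replicate fold changes, kanamycin versus none.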

Row | Sequence | self-splicing fitness (ln) (30 °C) | self-splicing fitness (ln) (37 °C)
1 | CGGCAGCAAUAUUACGAAAU | -3.82 ± 0.33 | -2.76 ± 0.33
2 | CGGCAGCAAUAUUACGAACU | -1.15 ± 0.44 | -0.121 ± 0.34
3 | CGGCAGCAAUAUUACGAUCA | -1.08 ± 0.11 | -0.194 ± 0.11
4 | CGGCAGCAAUAUUACGAUGC | -3.41 ± 0.29 | -1.6 ± 0.32
5 | CGGCAGCAAUAUUACGAUGG | -0.549 ± 0.083 | -0.741 ± 0.093
6 | CGGCAGCAAUAUUACGCAGC | -3.98 ± 0.34 | -1.71 ± 0.2
7 | CGGCAGCAAUAUUACGCAGG | -2.02 ± 0.093 | -1.33 ± 0.12
8 | CGGCAGCAAUAUUACGCCAU | -3.11 ± 0.2 | -1.6 ± 0.16
9 | CGGCAGCAAUAUUACGCCGU | -3.6 ± 0.29 | -2.29 ± 0.19
10 | CGGCAGCAAUAUUACGCGUG | -1.47 ± 0.1 | -0.594 ± 0.11
11 | CGGCAGCAAUAUUACGCUGA | -3.18 ± 0.17 | -2.17 ± 0.23
12 | CGGCAGCAAUAUUACGCUUU | -2.9 ± 0.2 | -1.62 ± 0.13
13 | CGGCAGCAAUAUUACGGAAC | -2.88 ± 0.16 | -3.76 ± 0.33
14 | CGGCAGCAAUAUUACGGAAU | -5.35 ± 0.41 | -1.42 ± 0.13
15 | CGGCAGCAAUAUUACGGUAA | -2.56 ± 0.13 | -2.33 ± 0.13
16 | CGGCAGCAAUAUUACGUAAA | -2.71 ± 0.12 | -1.84 ± 0.12
17 | CGGCAGCAAUAUUACGUACG | -3.05 ± 0.17 | -1.31 ± 0.16
18 | CGGCAGCAAUAUUACGUCCA | -0.34 ± 0.1 | -0.521 ± 0.14
19 | CGGCAGCAAUAUUACGUGAA | -2.25 ± 0.11 | -1.65 ± 0.15
20 | CGGCAGCAAUAUUACGUGAU | -3.11 ± 0.12 | -1.57 ± 0.13
21 | CGGCAGCAAUAUUACGUGGC | -3.19 ± 0.33 | -2.02 ± 0.23
22 | CGGCAGCAAUAUUACGUUCG |  | -1.23 ± 0.16
23 | CGGGAGCAAUAUUACGAAUC |  | -0.75 ± 0.23
24 | CGGGAGCAAUAUUACGACGU | -3.47 ± 0.33 | -1.16 ± 0.18
25 | CGGGAGCAAUAUUACGAGCU | -3.18 ± 0.41 | -1.89 ± 0.38
26 | CGGGAGCAAUAUUACGAGGA | -4.2 ± 0.39 | -2.53 ± 0.28

Row | Sequence | self-splicing fitness (ln) (30 °C) | self-splicing fitness (ln) (37 °C)
27 | CGGGAGCAAUAUUACGAGGU | -4.39 ± 0.39 | -2.18 ± 0.31
28 | CGGGAGCAAUAUUACGAUCA |  | -1.75 ± 0.43
29 | CGGGAGCAAUAUUACGCACG | -1.33 ± 0.31 | 
30 | CGGGAGCAAUAUUACGCUAA | -2.62 ± 0.43 | 
31 | CGGGAGCAAUAUUACGCUAG | -2.57 ± 0.27 | -1.27 ± 0.35
32 | CGGGAGCAAUAUUACGCUCG |  | -0.772 ± 0.32
33 | CGGGAGCAAUAUUACGGAUG | -3.1 ± 0.23 | -2.75 ± 0.26
34 | CGGGAGCAAUAUUACGGGCC | -1.81 ± 0.21 | 
35 | CGGGAGCAAUAUUACGUCGG | -2.52 ± 0.14 | -1.66 ± 0.15
36 | CGGGAGCAAUAUUACGUCUA | -1.89 ± 0.21 | -1.82 ± 0.21
37 | CGGGAGCAAUAUUACGUGGU | -3.52 ± 0.2 | -2.46 ± 0.19
38 | CGGUAGCAAUAUUACGAAAU | -2.91 ± 0.21 | -3.07 ± 0.37
39 | CGGUAGCAAUAUUACGACAA | -2 ± 0.21 | 0.305 ± 0.1
40 | CGGUAGCAAUAUUACGACCC | 0.488 ± 0.48 | -1.29 ± 0.44
41 | CGGUAGCAAUAUUACGACUU | -0.479 ± 0.094 | 0.365 ± 0.11
42 | CGGUAGCAAUAUUACGAGUA |  | -1.32 ± 0.4
43 | CGGUAGCAAUAUUACGAUGG | -0.774 ± 0.1 | 0.646 ± 0.14
44 | CGGUAGCAAUAUUACGCACC |  | -0.162 ± 0.39
45 | CGGUAGCAAUAUUACGCAGU | -4.22 ± 0.22 | -2.63 ± 0.16
46 | CGGUAGCAAUAUUACGCCCU | 0.24 ± 0.19 | 0.785 ± 0.29
47 | CGGUAGCAAUAUUACGCUUG | -2.07 ± 0.14 | -0.206 ± 0.14
48 | CGGUAGCAAUAUUACGGUGU | -3.24 ± 0.17 | -2.04 ± 0.17
49 | CGGUAGCAAUAUUACGUACA | -1.51 ± 0.14 | -0.643 ± 0.19
50 | CGGUAGCAAUAUUACGUAGG | -0.647 ± 0.051 | 0.647 ± 0.08
51 | CGGUAGCAAUAUUACGUCGA | -2.09 ± 0.23 | -0.214 ± 0.16
52 | CGGUAGCAAUAUUACGUGCG | -1.41 ± 0.12 | -0.87 ± 0.12

Row | Sequence | self-splicing fitness (ln) (30 °C) | self-splicing fitness (ln) (37 °C)
53 | CGGUAGCAAUAUUACGUUAG | 0.11 ± 0.074 | 0.0358 ± 0.097
54 | CGUAAGCAAUAUUACGACGU | -2.15 ± 0.15 | -0.981 ± 0.15
55 | CGUAAGCAAUAUUACGAGCC |  | -1.87 ± 0.22
56 | CGUAAGCAAUAUUACGAGCG | -1.02 ± 0.11 | -2.67 ± 0.24
57 | CGUAAGCAAUAUUACGAGGC | -3.73 ± 0.32 | -1.99 ± 0.29
58 | CGUAAGCAAUAUUACGAUAU | -2.95 ± 0.14 | -2.77 ± 0.2
59 | CGUAAGCAAUAUUACGAUCA | -1.17 ± 0.11 | -0.755 ± 0.12
60 | CGUAAGCAAUAUUACGAUGA | -3.44 ± 0.34 | 
61 | CGUAAGCAAUAUUACGCACU | -2.27 ± 0.24 | -1.6 ± 0.18
62 | CGUAAGCAAUAUUACGCAGU | -3.05 ± 0.2 | -2.64 ± 0.34
63 | CGUAAGCAAUAUUACGCCCG | -1.93 ± 0.18 | -0.621 ± 0.23
64 | CGUAAGCAAUAUUACGCUAG | -2.48 ± 0.13 | -0.429 ± 0.14
65 | CGUAAGCAAUAUUACGGACU | -0.0269 ± 0.14 | -0.0508 ± 0.14
66 | CGUAAGCAAUAUUACGGAGA | -2.79 ± 0.24 | -2.28 ± 0.29
67 | CGUAAGCAAUAUUACGGAUA |  | -2.1 ± 0.38
68 | CGUAAGCAAUAUUACGGGCA | -3.24 ± 0.23 | -1.09 ± 0.14
69 | CGUAAGCAAUAUUACGGUGG | -1.48 ± 0.082 | -1.25 ± 0.11
70 | CGUAAGCAAUAUUACGUAAC | -4.35 ± 0.26 | -2.51 ± 0.21
71 | CGUAAGCAAUAUUACGUCAG | -1.56 ± 0.11 | 0.0936 ± 0.11
72 | CGUAAGCAAUAUUACGUGCA | -0.906 ± 0.086 | 0.102 ± 0.096
73 | CGUAAGCAAUAUUACGUGGG | -3.43 ± 0.16 | -2.67 ± 0.15
74 | CGUAAGCAAUAUUACGUUGC | -2.73 ± 0.22 | -1.81 ± 0.29
75 | CGUCAGCAAUAUUACGAACA | -0.807 ± 0.078 | 0.843 ± 0.12
76 | CGUCAGCAAUAUUACGAGUA | -2.55 ± 0.28 | -2.69 ± 0.39
77 | CGUCAGCAAUAUUACGAGUC |  | -1.18 ± 0.18
78 | CGUCAGCAAUAUUACGAGUU | -3.3 ± 0.22 | -1.84 ± 0.22

Row | Sequence | self-splicing fitness (ln) (30 °C) | self-splicing fitness (ln) (37 °C)
79 | CGUCAGCAAUAUUACGAUAA | -1.1 ± 0.14 | 0.157 ± 0.12
80 | CGUCAGCAAUAUUACGCAAA | -2.96 ± 0.17 | -1.12 ± 0.16
81 | CGUCAGCAAUAUUACGCAGA | -2.79 ± 0.46 | -3.76 ± 0.46
82 | CGUCAGCAAUAUUACGCGGA |  | -3.17 ± 0.32
83 | CGUCAGCAAUAUUACGGAAG | -0.632 ± 0.088 | 0.304 ± 0.12
84 | CGUCAGCAAUAUUACGGACU | -0.14 ± 0.09 | 0.0847 ± 0.089
85 | CGUCAGCAAUAUUACGGGGA | -2.96 ± 0.16 | -1.91 ± 0.14
86 | CGUCAGCAAUAUUACGGUCG | -2.52 ± 0.11 | -2 ± 0.15
87 | CGUCAGCAAUAUUACGGUCU | -0.849 ± 0.079 | -0.828 ± 0.1
88 | CGUCAGCAAUAUUACGGUUG | -0.45 ± 0.065 | -0.256 ± 0.081
89 | CGUCAGCAAUAUUACGUCAC |  | -1.42 ± 0.26
90 | CGUCAGCAAUAUUACGUCAU | -3.73 ± 0.19 | -2.59 ± 0.16
91 | CGUCAGCAAUAUUACGUUCA | -1.26 ± 0.082 | -0.74 ± 0.087
92 | CGUGAGCAAUAUUACGAACG | -2.89 ± 0.38 | 
93 | CGUGAGCAAUAUUACGAAGU | -3.6 ± 0.21 | -2.41 ± 0.19
94 | CGUGAGCAAUAUUACGACAA |  | -3.33 ± 0.25
95 | CGUGAGCAAUAUUACGACUG | -0.73 ± 0.12 | -0.0318 ± 0.16
96 | CGUGAGCAAUAUUACGAGCC |  | -1.35 ± 0.41
97 | CGUGAGCAAUAUUACGCACG | -3.19 ± 0.29 | -2.94 ± 0.47
98 | CGUGAGCAAUAUUACGCAUA | -3.2 ± 0.28 | -1.18 ± 0.34
99 | CGUGAGCAAUAUUACGCAUU | -4.1 ± 0.47 | -2.15 ± 0.19
100 | CGUGAGCAAUAUUACGCCUA | -1.86 ± 0.25 | -0.88 ± 0.36
101 | CGUGAGCAAUAUUACGGACG | -2.08 ± 0.22 | -1.31 ± 0.38
